This note sets out measurements from patent US12723105.

Assay [1] deals with CD47 (UniProt Q08722). In words: competitive ELISA vs SIRPα.
Assay [2] deals with CD47 (UniProt Q08722). Nature of the assay: flow cytometry, CD47-overexpressing cells. Background: Flow cytometry measures light scatter and fluorescence of single cells or particles in a stream.

For orientation: IC50 means the concentration needed to halve the response being measured. What is called EC50 is the concentration at which the effect is half-maximal. A lower EC50 goes with a more potent agent. Regarding B6H12, the half-inhibitory concentration (IC50) in the assay with CD47 [1] came to 0.499 nM. The concentration for a half-maximal effect (EC50) in the assay with CD47 [2] worked out at 5.59 nM.
